Publication PMC4027207, “Molecular dissection of the domain architecture and catalytic activities of human PrimPol” (Nucleic Acids Research, 2014)

Assays:
[1] = target: T1, human PrimPol (wild-type, full-length) (Homo sapiens, UniProt Q96LW4); test: gel-based single nucleotide primer extension; format: biochemical; details: 200 uM dNTP
T1 construct: full length (560 residues), E. coli BL21(pLysS), Ni-NTA, heparin and gel filtration
T1 sequence (Q96LW4 1-560): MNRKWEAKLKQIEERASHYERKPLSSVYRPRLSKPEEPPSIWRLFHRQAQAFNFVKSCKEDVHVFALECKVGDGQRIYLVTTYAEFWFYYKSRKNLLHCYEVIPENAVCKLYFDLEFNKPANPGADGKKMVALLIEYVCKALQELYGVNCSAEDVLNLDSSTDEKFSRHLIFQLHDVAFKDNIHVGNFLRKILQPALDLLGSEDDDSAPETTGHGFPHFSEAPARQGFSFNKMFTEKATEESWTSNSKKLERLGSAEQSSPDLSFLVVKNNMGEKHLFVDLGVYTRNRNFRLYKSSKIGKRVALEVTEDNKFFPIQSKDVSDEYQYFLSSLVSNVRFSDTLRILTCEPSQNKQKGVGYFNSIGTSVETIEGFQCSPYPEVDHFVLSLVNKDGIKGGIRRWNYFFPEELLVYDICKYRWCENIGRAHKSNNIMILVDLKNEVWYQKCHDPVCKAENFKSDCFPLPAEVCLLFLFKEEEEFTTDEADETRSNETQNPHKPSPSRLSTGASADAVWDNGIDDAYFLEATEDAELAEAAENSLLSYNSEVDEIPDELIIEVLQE

PrimPol1–354 = target: T2, PrimPol1–354 (Homo sapiens, UniProt Q96LW4); test: gel-based single nucleotide primer extension; format: biochemical; details: opposite templating cytosines; 200 uM dNTP, 10 mM MgCl2, pH 7.0
T2 construct: gene PRIMPOL; AEP polymerase domain, residues 1-354, lacks zinc finger; E. coli, Ni-NTA
T2 sequence (Q96LW4 1-354): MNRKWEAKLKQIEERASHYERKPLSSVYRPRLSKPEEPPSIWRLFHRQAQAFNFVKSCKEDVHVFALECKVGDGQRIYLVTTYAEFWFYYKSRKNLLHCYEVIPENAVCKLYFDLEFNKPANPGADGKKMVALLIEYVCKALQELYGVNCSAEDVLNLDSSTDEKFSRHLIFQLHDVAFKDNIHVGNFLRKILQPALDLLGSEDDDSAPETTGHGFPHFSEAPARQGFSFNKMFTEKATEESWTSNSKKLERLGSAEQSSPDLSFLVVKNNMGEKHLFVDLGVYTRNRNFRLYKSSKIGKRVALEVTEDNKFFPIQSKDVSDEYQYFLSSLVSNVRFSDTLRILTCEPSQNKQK

[2] = target: T3, PrimPol1-354 (AEP polymerase domain) (Homo sapiens, UniProt Q96LW4 1-354); test: EMSA; 10 mM Mg2+; 40 nM DNA; shift evident at ~0.5 uM protein, complete at 5 uM; 10 mM Bis-Tris-Propane-HCl pH 7.0, 10 mM MgCl2, 1 mM DTT, 40 nM DNA, 25°C, 60 min; 5% polyacrylamide gel in 0.5x TBE; details: protein: recombinant, tags: His (Ni-NTA purified)
T3 sequence: T2 sequence (Q96LW4 1-354)

[3] = target: T4, PrimPol372-560 (zinc finger domain) (Homo sapiens, UniProt Q96LW4 372-560); test: EMSA; 10 mM Mg2+; 40 nM DNA; protein 0.05-20 uM; 10 mM Bis-Tris-Propane-HCl pH 7.0, 10 mM MgCl2, 1 mM DTT, 40 nM DNA, 25°C, 60 min; 5% polyacrylamide gel in 0.5x TBE; details: protein: recombinant; tags: His (Ni-NTA purified); label: 5'-Hex
T4 sequence: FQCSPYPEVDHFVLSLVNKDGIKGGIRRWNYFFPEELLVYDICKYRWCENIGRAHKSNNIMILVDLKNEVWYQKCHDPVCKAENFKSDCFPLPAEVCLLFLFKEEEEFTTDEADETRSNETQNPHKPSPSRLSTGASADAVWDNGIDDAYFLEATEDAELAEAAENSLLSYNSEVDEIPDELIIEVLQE

[4] = target: T4, PrimPol372-560 (zinc finger domain); test: EMSA; 10 mM Mg2+; 40 nM DNA; no shift, protein 0.05-20 uM; 10 mM Bis-Tris-Propane-HCl pH 7.0, 10 mM MgCl2, 1 mM DTT, 40 nM DNA, 25°C, 60 min; 5% polyacrylamide gel in 0.5x TBE; details: protein: recombinant; tags: His (Ni-NTA purified); label: 5'-Hex on strand 1; blunt

`Nc1nc2c(ncn2[C@H]2C[C@H](O)[C@@H](COP(=O)(O)OP(=O)(O)OP(=O)(O)O)O2)c(=O)[nH]1` [dGTP] was tested, and the “gel-based single nucleotide primer extension” value ([1]; opposite templating cytosines, 10 mM MgCl2, pH 7.0) was “all incorporated two correct incoming guanine nucleotides opposite the templating cytosines” and the “gel-based single nucleotide primer extension” value (PrimPol1–354) was “All four of these PrimPol constructs inserted two guanine nucleotides opposite two cytosines”.

In the case of `Nc1ncnc2c1ncn2[C@H]1C[C@H](O)[C@@H](COP(=O)(O)OP(=O)(O)OP(=O)(O)O)O1` [dATP], the “gel-based single nucleotide primer extension” value ([1]; template-independent extension, 10 mM MgCl2, 1 mM MnCl2, pH 7.0, 37 °C) is reported as “promiscuous DNA synthesis was most efficient when enzyme was utilising dATP or dTTP”.

TGTCGTCTGTTCGGTCGTTCGGTCTTCAAGGCTGTTGTGCGCCCTGCGCG (ssDNA) [HP-50 ssDNA (sequence 7)]: binds ([2]; label: 5'-Hex); binds [3].

B1: HP-50/ND-50 dsDNA (sequence 6 annealed to 7) (dsDNA)
DNA 1: TGTCGTCTGTTCGGTCGTTCGGTCTTCAAGGCTGTTGTGCGCCCTGCGCG
DNA 2: CGCGCAGGGCGCACAACAGCCTTGAAGACCGAACGACCGAACAGACGACA
B1: no binding [4]; binds ([2]; label: 5'-Hex on strand 1, blunt).
